Reference: publication PMC3192843

System: nsp16;nsp10 (SARS-CoV strain WHU;SARS-CoV strain WHU)
Test: ITC
Conditions: 5' m7GpppA cap-0

For m7GpppA-RNA, the Kd was 1210 nM.
